Reference: patent US20230062122A1 (VALO THERAPEUTICS, published 2023)

T1: MHC-I molecule (H-2K^b) on C57BL/6 splenocytes (mouse, UniProt P01887 21-119; P01901 22-369)
T1 sequence (MHC heavy): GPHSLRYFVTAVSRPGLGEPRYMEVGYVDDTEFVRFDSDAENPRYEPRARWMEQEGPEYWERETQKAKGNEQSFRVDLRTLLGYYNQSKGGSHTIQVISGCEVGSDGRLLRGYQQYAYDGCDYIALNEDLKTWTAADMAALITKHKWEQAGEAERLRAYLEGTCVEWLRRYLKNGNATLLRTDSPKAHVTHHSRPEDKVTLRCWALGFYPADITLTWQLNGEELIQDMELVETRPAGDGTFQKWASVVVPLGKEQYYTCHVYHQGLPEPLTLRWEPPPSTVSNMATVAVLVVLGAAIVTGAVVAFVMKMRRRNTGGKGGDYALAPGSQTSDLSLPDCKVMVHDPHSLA
T1 sequence (b2m): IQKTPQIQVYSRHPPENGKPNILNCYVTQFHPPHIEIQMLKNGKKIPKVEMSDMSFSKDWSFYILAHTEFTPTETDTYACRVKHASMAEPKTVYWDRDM


Columns and labels:
[1] = target: SIINFEKL on MHC-I (H-2K^b) on C57BL/6 splenocytes (mouse; chicken); test: flow cytometry, C57BL/6 splenocytes pulsed 2 h with SIINFEKL and stained with the APC antibody
[2] = target: T1, MHC-I molecule (H-2K^b) on C57BL/6 …; test: cell-based or functional assay

Row | Molecule | % of splenocytes positive [1] [%] | proportion of splenocytes cross-presenting SIINFEKL on MHC-I (flow cytometry with anti-H-2K^b bound to SIINFEKL) [2] [%]
1 | APC anti-mouse H-2K^b bound to SIINFEKL (BioLegend) (antibody) | 98.5 | 
2 | SIINFEKLKKKKKK [SIINFEKL-polyK] |  | 27.1
3 | KKKKKKSIINFEKL [polyK-SIINFEKL] |  | 94.5
4 | SIINFEKLKKKKKK (amino caproic acid (AHX) residue between SIINFEKL and polyK) [SIINFEKL-AHX-polyK] |  | 1.36
